T1: RepTrixie immunity repressor (Mycobacteriophage Trixie, UniProt G1JV33 1-192)
T1 sequence: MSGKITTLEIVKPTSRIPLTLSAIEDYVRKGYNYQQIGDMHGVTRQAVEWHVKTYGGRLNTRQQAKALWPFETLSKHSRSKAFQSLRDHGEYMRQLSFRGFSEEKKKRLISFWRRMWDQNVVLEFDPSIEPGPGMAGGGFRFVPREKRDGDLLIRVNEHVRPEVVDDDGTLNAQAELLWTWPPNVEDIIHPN


Molecular target: T1, RepTrixie immunity repressor
Experiment: EMSA; EMSA on 8% polyacrylamide gel, serially diluted Rep with 5'-32P 30-bp dsDNA; binding buffer and temperature not given (ref. 54); protein storage buffer 50 mM Tris pH 8.0, 150 mM NaCl, 0.1 mM EDTA, 0.1 mM DTT, 50% glycerol
Conditions: protein: recombinant; chain copies: 2; label: 5' 32P; blunt

Binder | Kd [nM]
Trixie stoperator 30-bp (dsDNA) DNA 1: TGAGCAGTACTTGACATTCACCAGGTTGGG DNA 2: CCCAACCTGGTGAATGTCAAGTACTGCTCA | ~6.48
RedRock stoperator 30-bp (dsDNA) DNA 1: TAAGGCGAACTTGACATCCACCGGGTTGGG DNA 2: CCCAACCCGGTGGATGTCAAGTTCGCCTTA | ~6.48

From publication PMC6550527, “Evolution of Superinfection Immunity in Cluster A Mycobacteriophages”
